# Laboratory results from the nanobody polyreactivity screen of Harvey et al. (2022).
# Test: yeast display, Sf9 membrane polyspecificity reagent, FACS + sequencing; frameworks hold sequencing errors
# Outline: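 Synthetic nanobody libraries on Saccharomyces cerevisiae BJ5465 were galactose-induced for 36–48 hours, stained 1 hour at 4 °C with 10% biotinylated, detergent-solubilized Sf9 membrane reagent and enriched on streptavidin microbeads. FACS then separated cells into low and high (top ~1%) gates by anti-HA (expression) and streptavidin (reagent binding) fluorescence. Genes were colony-PCR amplified, MiSeq 2 × 250 sequenced and CDR-length filtered. A clone's polyreactivity label is that of its gate of origin.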
row,Sequence,polyreactivity (PSR sort gate)
1,QVQLVESGGGLVQAGGSLRLSCAASGSIFPGNGMGWYRQAPGKERELVAAITWSVATTYYADSVKGRFTISRDNAKNTVYLQMNSLKPEDTAVYYCAADDAYPYDWGQGTQVTVSS,low polyreactivity
2,QFQLVESGGGLVQAGGSLRLSCAASGFNFQYNAIGWYRQAPGKERELVAAITWTGTSTYADSVKGRFTISRDYAKNTVYLQMNSLKPEDTSVYYCAARYYAPRWFRYDYWGQGTQVTVSS,low polyreactivity
3,QVQLVESGGGLVQAVGSLRLSCASSGNTFGPNAMGWYRQAPGKERELVAAIRWRGGSTYYADSVKGRFTISRDYAKNTVYLQMNSLKPVDNAVYYCAAGIHSPTYRTGTTYVDYDYWGQGTQVTVSS,high polyreactivity
4,QVQHEESGGGLVQAGGSLRLSCAASGSIFLHYAIGWYRQAPGKERVFVAAISFRSGSTYYADSVKGRFTISRDNAKNTVYLKLNSLKPEDTAVYYCASKSYNFIPGIREYDYWGQGTQVTVSS,low polyreactivity
5,QVQLVESGGGLVQAGGSLRLSCAASGSIFSYYAMGWYRQAPGKERELVAAITTSGGSTYYADSVKGRFTISRDNAKNTVYLQMNSLKPEDTAVYYCAVDQYDRTTAFWYWYPYYYWGQGTQVTVSS,low polyreactivity
6,QVQLVESGGGLVQAGGSLRLSSAASGSTFPVNARGCYRQAPGKERELVAAISSRGSSTYYADSVKGRFTISRDNAKNTVYLQMHSLNREDTAVYYCAAQQRFPRFYYWGEGTQVTVSS,high polyreactivity
7,QVQLVESGGGLVQAGGSLRLSCAASGSNFYPYAMGWYRQAPGKERELVAGITGGGRTYYADSVKGRFTISRDNAKNTVYLQMNSLKPEDTAVYYCAAVDYVSYYIPFHYEYYWGQGTQVTVSS,low polyreactivity
8,QVQLVESGGGLVQAGGSLRLSCAASGFIFRRYVMGWYRQAPGKERELVAAISYGGGSTYYADSVKGRFTISRDNAKITVYLQMNSLKPEDTAVYYCAKLYYRHLYEYDYWGQGTQVTVSS,high polyreactivity
9,QVHLVESGGGLVQAGGSLRLSCAASGSTFTSYAMGWYRQAPGKERELVATISKISGSTYYADSVKGRFTISRDNAKNTVYLQMNSLKPEDTAVYYCAAKQGWVQSSILWYRAYGTLNVRRERMDYWGQGTQVTVSS,high polyreactivity
10,QVQLVESGGGLVQAGGSLRFSCAASGRIFGRYAMGWYRQAPGKERELVAAISSTGGSTYYADSVKGRFTISRDNANNTVYLQMNSLKPEDTAVYYCATVWYGRYYWATEYWGQGTQVTVSS,high polyreactivity
11,QVQLVESGGGLVQAGGSLRLSCAASGRIFYYYAMGWYRQAPGKERELVAGISSGSSTNYADSVKGRFTISRDNAKNTVYLQMNSLKPEDTAVYYCAAYPYFSVAANDDYWGQGTQVTVSS,low polyreactivity
12,QVQLVESGGGLVQAGGSLRLSSAASGFTFKYYAMGWYRQAPGKERELVARITGSSGSTYYADSVKGRFTISRDNAKNTVYLQMNSLKPEDTAVYYCAASFKFRYYRYGAYEYWGQGTQVTVSS,high polyreactivity
13,QVQLVESGGGLVQAGGSHRLSCAASGRIFGYNAMGWYRQAPGKEWELVAAISSPGNTYYADSVKGRFTISRDNAKNTVYLQMNSLKPEDTAVYYCARSWLYSQRRYDYWGQGTQVTVSS,low polyreactivity
14,QVQLVESGGGLVQAGGSLRLSCAASGFIFGGYTMGWYRQAPGKERELVAAISKTGGSTYYADSVKGRFTISRDNAKNTVYLQMNSLKPEDTAVYYCAVARSAYYRGNHWGQGTQVTVSS,high polyreactivity
15,QVQLVESGGGLVQAGGSLRLSCAASGRIFRFYAMGWYRQAPGKERELVAAITRNVGSTFYADSVKGRFTISRDNAKNTVYLQMNSLKPEDTAVYYCAAESDYYYRYTFDYWGQGTQVTVSS,low polyreactivity
16,QVQLVESGGGLVQAGGSLRLSCAASGSTFIGNAMGWYRQAPGKEREFVATISQNGGRTYYADSVKGRFTISRDNAKNTVYLQMNSLKPEDTAVYYCAADDWRWGYDYWGQGTQVTVSS,high polyreactivity
17,QVQLVESGGGLVQAGGSLRLSCAASGRTFYGYGMGWYRQAPGKERELVAGISGRGTRTYYADSVKGRFTISRDNAKNTVYLQMNSLKPEDTAVYYCNAVSIGYYSQSLGLDYWGQGTQVTVSS,high polyreactivity
18,QVQLVESGGGLVQAGGSLRLSCAASGFTFTYYDMGWYRQAPGKERELVAAISRSGGRTYYADSVKGRFTISRDNAKNTVYLQMNSLKPEDTAVYYCAARRVDTRVHVRYRYYYWGQGTQVTVSS,high polyreactivity
19,QVQLVESGGGLVQAGGSLRLSCAASGITFYQYAMGWYRQAPGKERELVAGINSGGSTNYADSVKGRFTISRDNAKNTVYLQMNSLKPEDTAVYYCAAPWGWARRYRVYGGYYWGQGTQVTVSS,high polyreactivity
20,QVQLVESGGGLVQAGGSLRLSCASSGSTFKVYDMGWSRQAPGKERELVATITWGGGGTYYADSVTGRFTISRDNAKNTVYLLMNSLKPQDTAVYFCAAEVTLYSCYRYWYRYEYWGQGTQVTVSS,high polyreactivity
21,QVQLVESGGGLVQAGGSLRLSCAASGRTFSVNAMGWYRQAPGKERELVAAISWDGGSTYYADSVKGRFTISRDNAKNTVYLQMNSLKPEDTAVYYCIKDLYYAYDYWGQGTQVNVSS,low polyreactivity
22,QVQLVESGGGLVQAGGSLRLSCAASGFTFGRNAMGWYRQAPGTERELVARITTGGSTNYADSVKGRFTISRDNAKYTVYLQLNSLKPEDTAVYYCAATYVSLALFWTYGYWGQGTQVTVSS,low polyreactivity

row,Sequence,polyreactivity (PSR sort gate)
1,QVQLVESGGGLVQAGGRLRLSCAASGLTLQRYTKGWYRQAPGTERELVAAISRSGGGTYYADSVKGRFTISRDNAKNTVYLEMNSLKPEDTAVYYCAAGWYVYRPSRGYGYWGQGTQVTVSS,high polyreactivity
2,QVQLVESGGGLVQAGGSLRLSCAASGSIFYPNAMGWYRQAPGKERELVAANSIGGGRTYYADSVKGRFTISRDNAKNTVYLQMNSLKPEDTAVYYCAASFYSYTSTWAYRFYYWGQGTQVTVSS,high polyreactivity
3,QVQLVESGGGLVQAGGSLRLSCAASGSIFTAYAMGWYRQAPGKERELVAAIRWNDGRTYYADSVKGRFTISRDNAKNTVYLQINSLKPEDTAVYYCAARYTDVTPGFAYYYWGQGTQVTVSS,high polyreactivity
4,QVQLEESGGGLVQAGGSLRLSCAASGRIFRSYAMGWYRQAPGKERELVAAISQRGGRTYYADSVKGRFTISRDNAKNTVYLQMNSLKPEDTAVYYCAKSNPKLGYYYLQGDLYDYWGQGTQVTVSS,low polyreactivity
5,QVQLVESGGGLVQAGGSLRLSCAASGFIFFKYVMGWYRPAPGKERELVAAISTTGGRTYYADSVKGRFTISRDNAKNTVYLQMNSLKPEDTAVYYCAADYPVWNHGFDYWGQGTQVTVSS,high polyreactivity
6,QVKLVESGRGLVQAGGSLRLSCAASGYKCIVYTMGWYRQAPGKERELVAAISSGGITAYADSVKGRITISRDNAKNTVYLQMNSLKPEYTAVYYWGQGTQVTVSS,low polyreactivity
7,QVQHVESGGGLVQAGGSLRISCAASGFIFGPYAMGWSRKAPGKERELVAAISGRDGSTYYADSVKGRFTISRDNAKNSVYLHMNSLKPEDTAVYYCAAEVWTALYYSYYGYRYYWGQGTQVTLSS,high polyreactivity
8,QVQLVESGGGLVQAGGSLRLSCAASGSTQYPYAMGWYRQAPGKERELDAAISWSGGSTYYADSVKGRFTISRDPAQNTVYLQMNSLNPEDTAVYYCAAVYHFQYGAYDYWGQGTQVTVSS,high polyreactivity
9,QVQLQESGGGLVQAGGSLRLSCAASGSSSILHSMGWYRQAPRKERELVAGINWGATTYYADSVKGRLTTSRDYAKNTVYLQMNSLKPEDTAVYYCAVPTYYPYPLLYWGQGTQVTVSS,low polyreactivity
10,QVQLVESGGGLVQAGGSLRLSCAASGSTFGPNAMGWYRQAPGKERELVAAIRSQGGRTYYAYSVKGRFTISRDNAKNSVYLQMNSLIPEDTAVYYCGDPHYPYDTPYGYWGQGTQVTVSS,low polyreactivity
11,QVQLVESGGGLVQAGGSLRLSCAASGLIFADYVMGWYRQAPGKERELVVTINQGGGSTYYADSVKGRFTISRDNAKNTVYLQMNSLKPEDTAVYYCAATWALLYAIFESYDYWGQGTQVTVSS,low polyreactivity
12,QVQLEESGGGLVQAGGSLRLSCAASGFTFYGNAMGWYRQAPGKERELVATIRYRGGRTYYADSVKGRFTISRDNAKNTVYLQMNSLKPEDTAVYYCNRVGYQYGSDQEDDYWGQGTQVTVSS,high polyreactivity
13,QVQLVESVGGLVQAGGSLRLSCAASGRTFHGNAMRWYRQARGKERELVAAISYSGGRTYYADSVKGRFTISRDNAKNTVYLQMNSLKPEDTAVYYCAAWGSSYSFDYWGQGTQVTVSS,high polyreactivity
14,QVQLVESGGGLVQAGGSLRLSCAASGITFWYYAMGWYRQAPGKERELVARIRRSGGSTYYADSVKGRFTISRDNAKNTVYLQMNSLKPEDTAVYYCAAEPRWTAVYQGAERFYYWGQGTQVTVSS,high polyreactivity
15,QVQLVESGGGLVQAGGSLRLSCAASGRIFTTYAMGWYRQAPGKERELVAAISQNGGSTYYADSVKGRFTISRDNAKNTVYLQMNSLKPEETAVYYCNAGPAGYYDYDYWGQGTQVTVSS,low polyreactivity
16,QVQLEESGGGLVQAGGSLRLSCAASGFTFFQYAMGWYRQAPGKERELVAAITSGVSTNYADSVKGRFTISRDNAKNTVYVQMNSLKPEDTAVYYCAADPRSLQSWRGEFAGEYWGQGTQVTVSS,low polyreactivity
17,QVQLVESGGGLVQAGGSLRLSCAASGGTFSYYAMGWYRQAPGKERELVAAISGNGDTTYYADSVKGRFTSSRDNAKNTVYLQMNSLKPEYTAVYYCNVYVSAGEEVEYWGQGTQVTVSS,low polyreactivity
18,QVQLVESGGGLVQAGGSLRLSCAASGSIFRPNAMGWYRQAPGTEREFVASISGRVGSTYYADSVKGRFTISRDNAKNTVYLQMNSLKPEDTAVYYCAADSRGGYKRNYWGQGTQVTVSS,high polyreactivity
19,QVQLAESGACLVQAGGRLRLSCAASGRIFSFYAMGWYRQAPGKERELVITSGGDTNYADSVKGRFTISRDNAKNSVYLQMNSLKPEDTAVYYCNAEGDRSQPYNFDYWGQGTQVTVSS,low polyreactivity
20,QVQLVESGGGLVQAGGSLRLSCAASGYIFRFNAMGWYRQAPGKERELVAVITKSGGSTYYADSVKGRFTISRDNAKNTVYLQMNSLKPEDTAVYDCNADRFYIDYTNTYDSIRDYWGQGTQVTVSS,low polyreactivity
21,QVHLVESGGGLVQAGGSLRLSCDASGFTFYWYAMGWYRQPPGKERELVAAISNRGGSKYYADSVKGRFTISRDNAKNTVYLQMNSLKPEDTAVYYCGAEWYGRMYYWGQGTQVTVSS,high polyreactivity
